From EP4663762A2 (HongKong Bioheng Biotech Limited, dated 2025) come the findings set out here.

Common to all, as to assay: flow cytometry, soluble tagged antigen staining T cells that carry the construct
For test [1], the target named is T1, Human TIGIT Protein, Fc Tag (ACRO) (human, UniProt Q495A1 22-141).
T1 construct: Bought reagent (ACRO); no catalogue number, no construct limits; also called Human TIGIT Protein, Fc TagTIGIT; not shown: Fc tag
T1 sequence (looked up): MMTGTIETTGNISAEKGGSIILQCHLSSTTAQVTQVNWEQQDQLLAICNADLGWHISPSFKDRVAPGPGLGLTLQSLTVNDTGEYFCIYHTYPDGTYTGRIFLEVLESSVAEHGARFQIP

The target of test [2] is T2, Human CTLA-4 / CD152 Protein, Fc Tag (ACRO) (human, UniProt P16410 36-161, limits assumed).
T2 construct: Bought reagent (ACRO); no catalogue number, no construct limits; not shown: Fc tag
T2 sequence (looked up): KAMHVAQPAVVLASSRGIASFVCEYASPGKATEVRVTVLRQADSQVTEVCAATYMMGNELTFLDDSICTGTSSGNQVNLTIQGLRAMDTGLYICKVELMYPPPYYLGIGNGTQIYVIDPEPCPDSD

For test [3], the target named is T3, Human NKG2A&CD94 Protein, Fc Tag (ACRO) (human, UniProt P26715 94-233; Q13241 32-179, limits assumed).
T3 construct: Bought heterodimer reagent (ACRO) with Fc tag
T3 sequence (P26715 94-233 limits assumed, chain 1 of 2): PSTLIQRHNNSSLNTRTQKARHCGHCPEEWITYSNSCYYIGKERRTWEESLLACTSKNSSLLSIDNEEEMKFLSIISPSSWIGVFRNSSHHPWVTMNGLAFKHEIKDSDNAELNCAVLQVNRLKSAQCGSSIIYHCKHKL
T3 sequence (Q13241 32-179 limits assumed, chain 2 of 2): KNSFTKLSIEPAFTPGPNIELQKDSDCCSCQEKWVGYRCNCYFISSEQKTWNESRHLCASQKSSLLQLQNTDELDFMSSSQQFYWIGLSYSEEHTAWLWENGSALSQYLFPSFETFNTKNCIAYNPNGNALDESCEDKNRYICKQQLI

In test [4] the target is T4, Human PD-1 / PDCD1 Protein, His Tag (ACRO) (human, UniProt Q15116 25-167).
T4 construct: Bought reagent (ACRO); no catalogue number, no construct limits; also called CD279; not shown: His tag
T4 sequence (Q15116 25-167 limits assumed): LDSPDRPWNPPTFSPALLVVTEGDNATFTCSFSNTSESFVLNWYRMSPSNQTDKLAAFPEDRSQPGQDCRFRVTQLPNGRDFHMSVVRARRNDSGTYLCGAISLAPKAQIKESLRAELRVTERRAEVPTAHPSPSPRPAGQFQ

B1: immunosuppressive molecule of plasmid CAR19-C4TT (anti-CTLA4 scFv, linker, anti-TIGIT scFv, IgG4 hinge, CD28 transmembrane region, CD28 co-stimulatory domain), … (other)
chain: QVQLVESGGGVVQPGRSLRLSCAASGFTFSSYGMHWVRQAPGKGLEWVAVIWYDGSNKYYADSVKGRFTISRDNSKNTLYLQMNSLRAEDTAVFYCARAPNYIGAFDVWGQGTMVTVSSGGGGSGGGGSGGGGSDIQMTQSPSSLSASVGDRVTITCRASQGISSWLAWYQQKPEKAPKSLIYAASSLQSGVPSRFSGSGSGTDFTLTISSLQPEDFATYYCQQYNSYPPTFGQGTKVEIKGGGGSGGGGSGGGGSEVQLQQSGPGLVKPSQTLSLTCAISGDSVSSNSAAWNWIRQSPSRGLEWLGKTYYRFKWYSDYAVSVKGRITINPDTSKNQFSLQLNSVTPEDTAVFYCTRESTTYDLLAGPFDYWGQGTLVTVSSGGGGSGGGGSGGGGSDIVMTQSPDSLAVSLGERATINCKSSQTVLYSSNNKKYLAWYQQKPGQPPNLLIYWASTRESGVPDRFSGSGSGTDFTLTISSLQAEDVAVYYCQQYYSTPFTFGPGTKVEIKRESKYGPPCPPCPFWVLVVVGGVLACYSLLVTVAFIIFWVRSKRSRLLHSDYMNMTPRRPGPTRKHYQPYAPPRDFAAYRS
notes: Membrane-anchored on transduced T cells that also express the anti-CD19 CAR
Take B1: the binding result in test [1] and in test [2] was “binds” in each case.

B2: immunosuppressive molecule of plasmid CAR19-AC4 (anti-NKG2A scFv, linker, anti-CTLA4 scFv, IgG4 hinge, CD28 transmembrane region, CD28 co-stimulatory domain), … (other)
chain: EIVLTQSPATLSLSPGERATMTCSASSSVSSYIYWYQQKPGQAPRLLIYLTSNLASGIPARFSGSGSGTDFTLTISSLEPEDFATYYCQQWSGNPYTFGQGTKVEIKGSTSGSGKPGSGEGSTKGEVQLVESGGGLVKPGGSLRLSCAASGFTFSSYAMSWVRQAPGKGLEWVAEISSGGSYTYYPDSVKGRFTISRDNAKNSLYLQMNSLRAEDTAVYYCTRHGDYPRFFDVWGQGTLVTVSSGGGGSGGGGSGGGGSQVQLVESGGGVVQPGRSLRLSCAASGFTFSSYGMHWVRQAPGKGLEWVAVIWYDGSNKYYADSVKGRFTISRDNSKNTLYLQMNSLRAEDTAVFYCARAPNYIGAFDVWGQGTMVTVSSGGGGSGGGGSGGGGSDIQMTQSPSSLSASVGDRVTITCRASQGISSWLAWYQQKPEKAPKSLIYAASSLQSGVPSRFSGSGSGTDFTLTISSLQPEDFATYYCQQYNSYPPTFGQGTKVEIKESKYGPPCPPCPFWVLVVVGGVLACYSLLVTVAFIIFWVRSKRSRLLHSDYMNMTPRRPGPTRKHYQPYAPPRDFAAYRS
notes: as for B1
For the molecule B2, the binding result in test [3] and in test [2] was “binds” each time.

B3: immunosuppressive molecule of plasmid CAR18.2-PA (anti-PD1 scFv, linker, anti-NKG2A scFv, IgG4 hinge, CD28 transmembrane region, CD28 co-stimulatory domain), … (other)
chain: QVQLVQSGVEVKKPGASVKVSCKASGYTFTNYYMYWVRQAPGQGLEWMGGINPSNGGTNFNEKFKNRVTLTTDSSTTTAYMELKSLQFDDTAVYYCARRDYRFDMGFDYWGQGTTVTVSSGGGGSGGGGSGGGGSEIVLTQSPATLSLSPGERATLSCRASKGVSTSGYSYLHWYQQKPGQAPRLLIYLASYLESGVPARFSGSGSGTDFTLTISSLEPEDFAVYYCQHSRDLPLTFGGGTKVEIKGGGGSGGGGSGGGGSEIVLTQSPATLSLSPGERATMTCSASSSVSSYIYWYQQKPGQAPRLLIYLTSNLASGIPARFSGSGSGTDFTLTISSLEPEDFATYYCQQWSGNPYTFGQGTKVEIKGSTSGSGKPGSGEGSTKGEVQLVESGGGLVKPGGSLRLSCAASGFTFSSYAMSWVRQAPGKGLEWVAEISSGGSYTYYPDSVKGRFTISRDNAKNSLYLQMNSLRAEDTAVYYCTRHGDYPRFFDVWGQGTLVTVSSESKYGPPCPPCPFWVLVVVGGVLACYSLLVTVAFIIFWVRSKRSRLLHSDYMNMTPRRPGPTRKHYQPYAPPRDFAAYRS
In the case of B3, the binding result in test [3] and in test [4] was “binds” in each case.
